According to patent publication US6159704, “Phosphatase modulator” (Novartis AG, dated 2000):
Values belong to the binder of their own block, whether it stands above or below them.

B1: PP2Ac^150-309 fused to the GAL4 DNA binding domain (enzyme)
chain: FDYLPLTALVDGQIFCLHGGLSPSIDTLDHIRALDRLQEVPHEGPMCDLLWSDPDDRGGWGISPRGAGYTFGQDISETFNHANGLTLVSRAHQLVMEGYNWCHDRNVVTIFSAPNYCYRCGNQAAIMELDDTLKYSFLQFDPAPRRGEPHVTRRTPDYFL
B3: PP2Ac^100-309 fused to the GAL4 DNA binding domain (enzyme)
chain: LVALKVRYRERITILRGNHESRQITQVYGFYDECLRKYGNANVWKYFTDLFDYLPLTALVDGQIFCLHGGLSPSIDTLDHIRALDRLQEVPHEGPMCDLLWSDPDDRGGWGISPRGAGYTFGQDISETFNHANGLTLVSRAHQLVMEGYNWCHDRNVVTIFSAPNYCYRCGNQAAIMELDDTLKYSFLQFDPAPRRGEPHVTRRTPDYFL
B4: full length human PR55α fused to the GAL4 DNA binding domain (other)
chain: MAGAGGGNDIQWCFSQVKGAVDDDVAEADIISTVEFNHSGELLATGDKGGRVVIFQQEQENKIQSHSRGEYNVYSTFQSHEPEFDYLKSLEIEEKINKIRWLPQKNAAQFLLSTNDKTIKLWKISERDKRPEGYNLKEEDGRYRDPTTVTTLRVPVFRPMDLMVEASPRRIFANAHTYHINSISINSDYETYLSADDLRINLWHLEITDRSFNIVDIKPANMEELTEVITAAEFHPNSCNTFVYSSSKGTIRLCDMRASALCDRHSKLFEEPEDPSNRSFFSEIISSISDVKFSHSGRYMMTRDYLSVKIWDLNMENRPVETYQVHEYLRSKLCSLYENDCIFDKFECCWNGSDSVVMTGSYNNFFRMFDRNTKRDITLEASRENNKPRTVLKPRKVCASGKRKKDEISVDSLDFNKKILHTAWHPKENIIAVATTNNLYIFQDKVN

Columns and labels:
[1] = target: full length human eRF1 fused to the GAL4 transactivation domain (yeast; human, UniProt P62495); experiment: yeast two-hybrid: His growth (HF7c) and colony colour in filter β-Gal assay (SFY526)
Text: PCR products encoding three N-terminal (PP2Ac^50-309, PP2Ac^100-309 and PP2Ac^150-309) and three C-terminal (PP2Ac^1-259, PP2Ac^1-209 and PP2Ac^1-159) truncations of PP2Acα are subcloned into pGBT9 in-frame with the GAL4 DNA binding domain. Control plasmids encoding wild-type GAL4 protein (pCL1), SV40 large T antigen (pTD1), p53 (pVA3) and lamin C (pLAM5'), the latter three fused to the appropriate domains of GAL4, are provided by the manufacturer and used for control interactions. Expression constructs are transformed into *S. cerevisiae* host strains SFY526 (lacZ reporter gene) and HF7c (lacZ and HIS3 reporter genes). […] The expression of the lacZreporter gene is determined by measuring β-galactosidase activity using 5-bromo-4-chloro-3-indolyl-β-D-galactoside [X-Gal] and O-nitrophenyl-β-D-galactoside [ONPG] as substrates, whereas the expression of HIS3 reporter gene is assessed by monitoring growth on triple selective SD medium lacking leucine, tryptophan and histidine. All media and reagents are prepared according to the manufacturer's recommendations. Transcriptional activation of reporter genes driven by wild-type GAL4 protein or brought about by the interaction between SV40 largeT and p53 are used as positive controls. To exclude intrinsic transcriptional activation capacity or non-specific binding of either molecules to unrelated proteins, cotransformations with the empty vector or vector encoding human lamin C fused to the opposite domain of GAL4 are used as negative controls.

[2] = target: PP2Ac^50-309 fused to the GAL4 DNA binding domain (yeast; human, UniProt P04386); experiment: yeast two-hybrid, empty vector control: His growth (HF7c) and filter β-Gal colour (SFY526)
[3] = target: PP2Ac^1-259 fused to the GAL4 DNA binding domain (yeast; human, UniProt P04386); experiment: as above
[4] = target: full length human PP2Acα fused to the GAL4 DNA binding domain (yeast; human); experiment: as above
[5] = target: PP2Ac^1-159 fused to the GAL4 DNA binding domain (yeast; human, UniProt P04386); experiment: as above
[6] = target: full length human PR65α fused to the GAL4 DNA binding domain (yeast; human); experiment: as above
[7] = target: B4; experiment: as above
[8] = target: B1; experiment: as above
[9] = target: B3; experiment: as above
[10] = target: PP2Ac^1-209 fused to the GAL4 DNA binding domain (yeast; human, UniProt P04386); experiment: as above

Binder: B1
binding result [1]: no binding

binding result [2]: no binding | binding result [3]: no binding | binding result [4]: no binding | binding result [5]: no binding | binding result [6]: no binding | binding result [7]: no binding | binding result [8]: no binding | binding result [9]: no binding | binding result [10]: no binding
B2: GAL4 transactivation domain alone (empty vector pGAD424) (other)
chain: ANFNQSGNIADSSLSFTFTNSSNGPNLITTQTNSQALSQPIASSNVHDNFMNNEITASKIDDGNNSKPLSPGWTDQTAYNAFGITTGMFNTTTMDDVYNYLFDDEDTPPNPKKE

Binder: B3
binding result [1]: no binding

Binder: B4
binding result [1]: no binding
